In publication PMC6123631:

Legend:
FtFur WT [1] = target: T1, FtFur WT (Francisella tularensis FSC198 (100% …, UniProt Q5NIN6 1-140)); assay: EMSA; details: protein: recombinant; tags: none; chain copies: 4; label: 32P 5' end (EMSA)
FtFur WT [2] = target: T1, FtFur WT; assay: EMSA; 10 uM Mn2+; main species one dimer bound; details: protein: recombinant; tags: none; chain copies: 4; label: 32P 5' end (EMSA)
FtFur WT [3] = target: T1, FtFur WT; assay: SEC-MALLS-RI; details: protein: recombinant; tags: none; chain copies: 4; label: none (SEC-MALLS, SAXS)

B1: PfigAL (PfigA, 43 bp) (dsDNA)
DNA 1: GGGCTACATGATAATGATAACGAATATCATTATCGTTTATGGG
DNA 2: CCCATAAACGATAATGATATTCGTTATCATTATCATGTAGCCC
FtFur WT [1]
  Kd: ~5 nM

B2: PfigAS (dsDNA)
DNA 1: GGGGATAATGATAACGAATATCATTATCGGG
DNA 2: CCCGATAATGATATTCGTTATCATTATCCCC
FtFur WT [2]
  binding result: binds

B3: FurBox (EcFurBox) (dsDNA)
DNA 1: GGGGATAATGATAATCATTATCGGG
DNA 2: CCCGATAATGATTATCATTATCCCC
FtFur WT [3]
  binding result: binds
